The values below come from patent US7282483 (Amgen, dated 2007).

The experiment addresses T1, TNF-β (lymphotoxin) (UniProt P01374 35-205, limits assumed).
T1 sequence (looked up): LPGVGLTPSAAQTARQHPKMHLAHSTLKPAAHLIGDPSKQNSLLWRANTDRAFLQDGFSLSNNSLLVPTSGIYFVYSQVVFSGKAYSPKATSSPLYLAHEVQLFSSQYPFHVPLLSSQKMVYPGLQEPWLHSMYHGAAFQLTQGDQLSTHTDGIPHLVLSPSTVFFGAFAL
Briefly: preliminary tests, analogous to the competition binding test.

B1: TNF-binding protein (TNF-BP), natural, purified from dialyzed urine of uraemia patients (receptor)
chain: DSVCPQGKYIHPQNNSICCTKCHKGTYLYNDCPGPGQDTDCRECESGSFTASENHLRHCLSCSKCRKEMGQVEISSCTVDRDTVCGCRKNQYRHYWSENLFQCFNCSLCLNGTVHLSCQEKQNTVCTCHAGFFLRENECVSCSNCKKSLECTKLCLPQIEN
modifications: glycoprotein; Asn-25 glycosylated (numbering of the TNF-BP cDNA sequence, Leu-1 = first residue after the signal peptide)
notes: Main form (about 80 %) starts at Asp-12; In the preliminary tests it was used as concentrated dialyzed urine or partly purified preparations
As to B1, the “affinity for TNF-β relative to its affinity for TNF-α” value is ~0.02 ratio (affinity for TNF-β / affinity for TNF-α).
